Source: publication PMC4271523, “Differential Effects of a Mutation on the Normal and Promiscuous Activities of Orthologs: Implications for Natural and Directed Evolution” (Molecular Biology and Evolution, 2014)

How the values were obtained:
Assay in all cases: purified protein
purified protein [1] = substrate: CC(=O)N[C@@H](CCC=O)C(=O)O; format: biochemical, Saccharophagus degradans; details: 1 mM NADP+, 100 mM potassium phosphate pH 7.6, room temperature, reverse (dehydrogenase) direction, promiscuous substrate, apparent KM, NAGSA in equilibrium with its hydrate
purified protein [2] = substrate: N[C@@H](CCC=O)C(=O)O; format: biochemical, Saccharophagus degradans; details: 1 mM NADP+, 100 mM potassium phosphate pH 7.6, room temperature, reverse (dehydrogenase) direction, apparent KM corrected to free GSA aldehyde/hydrate
purified protein [3] = substrate: CC(=O)N[C@@H](CCC=O)C(=O)O; format: biochemical, Pseudomonas putida; details: 1 mM NADP+, 100 mM potassium phosphate pH 7.6, room temperature, reverse (dehydrogenase) direction, promiscuous substrate, apparent KM, NAGSA in equilibrium with its hydrate
purified protein [4] = substrate: N[C@@H](CCC=O)C(=O)O; format: biochemical, Pseudomonas putida; details: 1 mM NADP+, 100 mM potassium phosphate pH 7.6, room temperature, reverse (dehydrogenase) direction, apparent KM corrected to free GSA aldehyde/hydrate
purified protein [5] = substrate: CC(=O)N[C@@H](CCC=O)C(=O)O; format: biochemical, Escherichia coli; details: 1 mM NADP+, 100 mM potassium phosphate pH 7.6, room temperature, reverse (dehydrogenase) direction, promiscuous substrate, apparent KM, NAGSA in equilibrium with its hydrate
purified protein [6] = substrate: N[C@@H](CCC=O)C(=O)O; format: biochemical, Escherichia coli; details: 1 mM NADP+, 100 mM potassium phosphate pH 7.6, room temperature, reverse (dehydrogenase) direction, apparent KM corrected to free GSA aldehyde/hydrate
purified protein [7] = substrate: N[C@@H](CCC=O)C(=O)O; format: biochemical, Methanosarcina acetivorans; details: 1 mM NADP+, 100 mM potassium phosphate pH 7.6, room temperature, reverse (dehydrogenase) direction, apparent KM corrected to free GSA aldehyde/hydrate

B1: Saccharophagus degradans ProA (Saccharophagus degradans 2-40) (protein)
chain: MTVQDYMLTLGKQARAASRQMASADTGKKNAALLAIADAINSARDTIAAENARDMEAGRANGLDAALLDRLELTPERIDGMIEGLNQVAALPDPCGEITDLKYRPSGIQLGKKRTPLGVVGIIYESRPNVTVDAASLCLKSGNAAILRGGSEAIHSNKAVAVCIAAGLKAAGLPETAVQVVETTDRAAVGELITMTKYVDVVVPRGGKSLIERISADARVSVIKHLDGICHVYVDKTANLDKAFNIVINSKTHRYGVCNAMETMLVDEAIAADFLPRAAKEFAARGVELRGCEKTVALLTASDIPVVAALEEDWDTEYLAPILSIKLVANMDEAIEHINNHGSHHTDALVSENYTLARKFLTEVDSSSVMINASTRFADGFEYGLGAEIGISTDKIHARGPVGLEGLTSQKWIVFGDGHIRN
notes: His-tagged, pTrcHisB, expressed in delta-argC delta-proA E. coli BW25113 (DE3)
Km (purified protein [1]): 820 ± 160 µM
kcat (purified protein [1]): 3e-05 ± 3e-06 s⁻¹
kcat/Km (purified protein [1]): 0.037 ± 0.004 M⁻¹ s⁻¹
Km (purified protein [2]): 85 ± 13 µM
kcat (purified protein [2]): 0.4 ± 0.04 s⁻¹
kcat/Km (purified protein [2]): 4700 ± 400 M⁻¹ s⁻¹

B2: Pseudomonas putida ProA (Pseudomonas putida KT2440) (protein)
chain: MTESVLDYMTRLGRAAREASRVIGRASTAQKNRALQAAADALDAARAELTAANELDLAAGRASGLEPALLDRLALTPARIDGMITGLRQVASLPDPVGAIRDMSYRPSGIQVGKMRTPLGVIGIIYESRPNVTIDAASLCLKSGNATILRGGSEAIHSNRAIATCIQRGLAEAGLPAAVVQVVETTDREAVGALISMPEFVDVIVPRGGRGLIERISRDARVPVIKHLDGICHIYVSQHADLDKAWNVAFNAKTYRYGICGAMETLLVDQQVAERFLPEMARRFVEKGVELRGCERTQAIISAKPATEADWHTEYLDAILSIRVVDGLNQAIEHINHYGSHHTDSIISEHQGEARQFMAEVDSASVMLNTPTCFADGFEYGLGAEIGISTDKLHARGPVGLEGLTCEKYVVIGDGQLRGQGSC
notes: as for B1
Km (purified protein [3]): 5200 ± 1900 µM
kcat (purified protein [3]): 0.001 ± 0.0003 s⁻¹
kcat/Km (purified protein [3]): 0.15 ± 0.055 M⁻¹ s⁻¹
Km (purified protein [4]): 140 ± 90 µM
kcat (purified protein [4]): 0.74 ± 0.23 s⁻¹
kcat/Km (purified protein [4]): 6100 ± 1700 M⁻¹ s⁻¹

B3: E. coli ProA (GP reductase) (Escherichia coli K-12) (protein)
chain: MLEQMGIAAKQASYKLAQLSSREKNRVLEKIADELEAQSEIILNANAQDVADARANGLSEAMLDRLALTPARLKGIADDVRQVCNLADPVGQVIDGGVLDSGLRLERRRVPLGVIGVIYEARPNVTVDVASLCLKTGNAVILRGGKETCRTNAATVAVIQDALKSCGLPAGAVQAIDNPDRALVSEMLRMDKYIDMLIPRGGAGLHKLCREQSTIPVITGGIGVCHIYVDESVEIAEALKVIVNAKTQRPSTCNTVETLLVNKNIADSFLPALSKQMAESGVTLHADAAALAQLQAGPAKVVAVKAEEYDDEFLSLDLNVKIVSDLDDAIAHIREHGTQHSDAILTRDMRNAQRFVNEVDSSAVYVNASTRFTDGGQFGLGAEVAVSTQKLHARGPMGLEALTTYKWIGIGDYTIRA
notes: as for B1
Km (purified protein [5]): 480 ± 30 µM
Km (purified protein [6]): 43 ± 3 µM
kcat (purified protein [6]): 5.1 ± 0.2 s⁻¹
kcat/Km (purified protein [6]): 120000 ± 10000 M⁻¹ s⁻¹

B4: Methanosarcina acetivorans ProA (Methanosarcina acetivorans C2A) (protein)
chain: MAEDIETKVVKAKKASIELSSVSEEVKNRALEAMAESLDRERKAILEANSKDLEYASELKKVGKLTQALVDRLKVTDSKIDGMIAGIMDVIKLKDPVGETLSTLELDNDLILYQISCPIGLIGVIFESRPDVVPQVMSLCLKSGNATIFKGGSEARESNRTIFEILVKAIESTEGMPKGAFQLMETREEIMSLLSLDAYVDLLIPRGSNEFVKFIQDNTKIPVLGHTSGICHIYVDEFADPDTAWKVCFDAKVQYPAVCNAIETLLVNRKIAEAFLPKMAEMYIKAGVELRCDKDSYILLAEKGLSPLSKATEEDWSLEYNDLILSIKLVDTIKEAIAHINTFGSHHTDGIITENASRRKEFIGLVDSSSVMVNASTRFADGYRYGKGAEVGISTNKIHSRGPVGMEGLLIYKYILMGKGQVVADYAGENAKPYTHRKLDLKFADVN
notes: as for B1
Km (purified protein [7]): 14 ± 4 µM
kcat (purified protein [7]): 0.43 ± 0.03 s⁻¹
kcat/Km (purified protein [7]): 25000 ± 11000 M⁻¹ s⁻¹

B5: Methanosarcina acetivorans ProA (Methanosarcina acetivorans C2A; E390A) (protein)
chain: MAEDIETKVVKAKKASIELSSVSEEVKNRALEAMAESLDRERKAILEANSKDLEYASELKKVGKLTQALVDRLKVTDSKIDGMIAGIMDVIKLKDPVGETLSTLELDNDLILYQISCPIGLIGVIFESRPDVVPQVMSLCLKSGNATIFKGGSEARESNRTIFEILVKAIESTEGMPKGAFQLMETREEIMSLLSLDAYVDLLIPRGSNEFVKFIQDNTKIPVLGHTSGICHIYVDEFADPDTAWKVCFDAKVQYPAVCNAIETLLVNRKIAEAFLPKMAEMYIKAGVELRCDKDSYILLAEKGLSPLSKATEEDWSLEYNDLILSIKLVDTIKEAIAHINTFGSHHTDGIITENASRRKEFIGLVDSSSVMVNASTRFADGYRYGKGAAVGISTNKIHSRGPVGMEGLLIYKYILMGKGQVVADYAGENAKPYTHRKLDLKFADVN
notes: as for B1
Km (purified protein [7]): 56 ± 28 µM
kcat (purified protein [7]): 0.0018 ± 0.0005 s⁻¹
kcat/Km (purified protein [7]): 32 ± 15 M⁻¹ s⁻¹
